Earlier results, collected in paper doi:10.1101/2024.11.09.622800.
Read-outs that look alike come from different tables or passages of the source.

Columns and labels:
[1] = molecular target: Asp85 (UniProt position 98, WARYADWLFTT)
[2] = molecular target: Asp75 (UniProt position 122, TWREADINYTS)
[3] = molecular target: Cys48 (UniProt position 48, SLKASCLYGQL)
[4] = molecular target: Glu325 (UniProt position 325, TLHMFEVPFLL)
[5] = molecular target: Lys132 (UniProt position 214, KSEAQKKKEKL); experiment: stability
[6] = molecular target: Asp118 (UniProt position 200, YVYKPDNTHEQ); experiment: stability
[7] = molecular target: Asp41 (UniProt position 123, LLLVDDPETKH); experiment: stability
[8] = molecular target: Asp26 (UniProt position 26, KLVVVDFSATW)
[9] = molecular target: Glu172 (UniProt position 200, QVMATEGYQSS)

Substance: Bacteriorhodopsin (Halobacterium salinarum (not stated in the article))
- pKa ([1]; conformational state associated by the authors with PDB 1IW6): 7.2
- pKa ([1]; conformational state associated by the authors with PDB 1UCQ (retinal forms a salt bridge with Asp85)): 2.6

Substance: Barnase (Bacillus amyloliquefaciens (not stated in the article))
- pKa [2]: 3.1

Substance: Glutathione S-transferase (PDB 5X79)
- pKa [3]: 3.7

Substance: Lactose permease LacY (Escherichia coli (not stated in the article))
- pKa [4]: 10.5

Substance: Staphylococcal nuclease (SNase) A132K variant (Staphylococcus aureus; A132K)
- pKa [5]: 10.4

Substance: Staphylococcal nuclease (SNase) N118D variant (Staphylococcus aureus; N118D)
- pKa [6]: 7.0

Substance: Staphylococcal nuclease (SNase) T41D variant (Staphylococcus aureus; T41D)
- pKa [7]: ∼4

Substance: Thioredoxin (Homo sapiens)
- pKa ([8]; oxidized): 8.1
- pKa ([8]; reduced): 9.9

Substance: Xylanase (endo-1,4-beta-xylanase), wild type (Bacillus circulans (not stated in the article))
- pKa [9]: 6.7

Substance: Xylanase, mutant with Glu78 covalently linked to substrate (PDB 3VZO) (Bacillus circulans (not stated in the article); not stated (the article says only that 'another nearby residue is mutated'))
- pKa ([9]; Glu78 covalently linked to substrate (covalent intermediate), nearby residue mutated): 2.8
